Source: patent US20150297680A1

Target: human serum albumin (HSA) (human) (UniProt P02768)
Assay: HSA-coupled agarose beads, washed with PBS, fluorescence plate reader (ex 480 nm, em 510 nm)

Chain of UniProt P02768 (P02768 25-609 limits assumed): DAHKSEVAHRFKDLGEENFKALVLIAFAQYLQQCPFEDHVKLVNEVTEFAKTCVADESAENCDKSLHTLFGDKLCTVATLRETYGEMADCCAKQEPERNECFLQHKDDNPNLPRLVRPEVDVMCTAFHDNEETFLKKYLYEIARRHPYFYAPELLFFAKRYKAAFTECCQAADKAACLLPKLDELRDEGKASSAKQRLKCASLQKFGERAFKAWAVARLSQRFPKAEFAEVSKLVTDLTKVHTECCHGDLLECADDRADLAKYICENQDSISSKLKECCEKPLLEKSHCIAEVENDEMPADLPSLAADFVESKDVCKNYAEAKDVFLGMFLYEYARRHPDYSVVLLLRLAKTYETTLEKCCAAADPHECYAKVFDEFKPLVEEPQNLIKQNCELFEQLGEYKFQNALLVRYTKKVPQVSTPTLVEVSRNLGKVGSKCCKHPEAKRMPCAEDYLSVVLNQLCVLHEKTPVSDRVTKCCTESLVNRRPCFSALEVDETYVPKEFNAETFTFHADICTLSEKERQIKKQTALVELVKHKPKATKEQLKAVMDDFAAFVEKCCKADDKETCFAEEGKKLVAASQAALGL

- fold fluorescence of HSA-coupled beads against those with sfGFP-WT: 20 fold
Substance: palmitic acid-conjugated superfolder green fluorescent protein (sfGFP-Pal)
